Holding throughout (assay): SPR
The target in one experiment is MUC1 TRD-Tn (3) (UniProt P15941, Tn antigen (GalNAcα) on the Thr of the Asp-Thr-Arg-Pro moiety).
Another experiment has as its target MUC1-ST (4) (UniProt P15941, ST antigen (Neu5Acα2,3Galβ1,3GalNAcα) on the Thr of the Asp-Thr-Arg-Pro moiety).
Experiment [1] deals with non-glycosylated MUC1 TRD (2) (UniProt P15941).
Sequence of non-glycosylated MUC1 TRD (2) (P15941 whole entry, looked up): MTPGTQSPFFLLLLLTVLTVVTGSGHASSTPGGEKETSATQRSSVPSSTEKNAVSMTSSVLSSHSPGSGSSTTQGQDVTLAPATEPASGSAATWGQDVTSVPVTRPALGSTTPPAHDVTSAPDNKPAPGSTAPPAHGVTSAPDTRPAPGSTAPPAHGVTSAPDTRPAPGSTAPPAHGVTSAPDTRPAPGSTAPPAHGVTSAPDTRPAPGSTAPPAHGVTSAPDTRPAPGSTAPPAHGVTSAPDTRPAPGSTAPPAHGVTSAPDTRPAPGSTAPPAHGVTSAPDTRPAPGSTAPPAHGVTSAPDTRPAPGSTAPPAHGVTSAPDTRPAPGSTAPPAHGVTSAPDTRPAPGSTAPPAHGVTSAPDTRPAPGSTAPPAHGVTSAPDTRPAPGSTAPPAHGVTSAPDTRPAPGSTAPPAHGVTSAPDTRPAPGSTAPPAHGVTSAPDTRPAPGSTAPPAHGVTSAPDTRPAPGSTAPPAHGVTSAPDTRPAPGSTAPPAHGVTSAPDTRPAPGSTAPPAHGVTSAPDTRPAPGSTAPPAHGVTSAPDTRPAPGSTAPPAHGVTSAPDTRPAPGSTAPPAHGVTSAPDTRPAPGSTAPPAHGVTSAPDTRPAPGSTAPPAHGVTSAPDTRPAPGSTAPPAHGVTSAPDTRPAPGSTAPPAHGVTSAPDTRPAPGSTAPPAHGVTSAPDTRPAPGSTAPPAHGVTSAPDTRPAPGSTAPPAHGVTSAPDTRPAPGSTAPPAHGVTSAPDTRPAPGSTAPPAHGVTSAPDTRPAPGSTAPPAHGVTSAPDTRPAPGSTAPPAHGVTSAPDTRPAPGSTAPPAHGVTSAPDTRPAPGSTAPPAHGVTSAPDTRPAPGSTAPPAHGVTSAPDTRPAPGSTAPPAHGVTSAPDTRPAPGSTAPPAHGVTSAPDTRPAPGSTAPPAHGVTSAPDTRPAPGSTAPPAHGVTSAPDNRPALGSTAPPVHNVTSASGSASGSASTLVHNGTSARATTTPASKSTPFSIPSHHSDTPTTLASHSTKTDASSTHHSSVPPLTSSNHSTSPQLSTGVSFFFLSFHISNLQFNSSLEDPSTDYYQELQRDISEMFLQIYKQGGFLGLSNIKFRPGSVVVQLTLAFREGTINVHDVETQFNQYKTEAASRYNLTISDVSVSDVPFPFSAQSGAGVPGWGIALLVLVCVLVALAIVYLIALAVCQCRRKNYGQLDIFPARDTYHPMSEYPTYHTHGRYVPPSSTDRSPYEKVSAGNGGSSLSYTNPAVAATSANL

Sequence of MUC1 TRD-Tn (3) (P15941 whole entry, looked up): as above
Sequence of MUC1-ST (4) (P15941 whole entry, looked up): as above

B1: SN-131 Fab (Fab, V domains shown)
VH: QVQLQQSGAELARPGASVKLSCKASGYTFTNYGLSWVKQRTGQGLEWIGENHPGSGIIYHNEKFRGKATLTADKSSSTAYVQLSSLTSEDSAVYFCARSSGTRGFAYWGQGTLVTVSA
VL: DVLMTQTPLSLPVSLGDQASISCRSSQSIVHSNGNTYLEWYLQKPGQSPKLLIYKVSNRFSGVPDRFSGSGSGTDFTLKISRVEAEDLGVYYCFQGSHGPWTFGGGTKLEIK
The koff is the first-order rate constant of dissociation. The low end stands for slow dissociation, the high end for fast dissociation. Broadly, the Kd is a measure of binding affinity in units of concentration. The low end stands for higher affinity, the high end for lower affinity. For B1, the results for the koff (with MUC1 TRD-Tn (3); in the experiment with MUC1-ST (4); in experiment [1]) were 0.00144 s⁻¹, 0.000456 s⁻¹ and 0.00225 s⁻¹, respectively. In experiment [1], this molecule had a Kd of 10.8 µM.

Source of the values: publication PMC10398351 (2023).
